# Laboratory results as given in the DeepSol protein solubility set.
# Assay: soluble on expression in E. coli; label from the status in PepcDB or PDB records
row,Sequence,soluble on expression in E. coli
1,MSFKDPPTLQQLARRSLLKDEALTISALPNLPVQLFPPLFKDAFTSRQRKILSLMVATWPFPVLPVGALCGIDHLETLKAVLDGLDLLMSQKDRPSRWNLQVLDLRDAHQDFWDGWAGLLHEVCSQDVFGKNQPVGNHPIPGGKQTISIKMNLSLKYCRRHSHCENLNYLYYWAKQRKDVIQVIFEKLEFTGKHCLRLKLWRLLKLSFVASIQELTIKSIHWDIYNLALIASCLGQMKNLQKLILMNIRRPSSLTDLQEARIITEIFSEFSKLHKLQHLYVNDVYFLKERLDLMLRCFERPLETLTITYCKLSESDMRYLSQCPSIHQLKYLDMSYTTFKPSSHRFLGFLGSLLERLTATLQTLKLECFHLTDSRIRDLLPGLSQCSQLTEVDFVENKFSMVSLKTLLQHTANLTQLTLEKYPAPDEVYDDSLCVIPDRFVQLCSELMNTLKGVRQPKQVYFESTIYSPNFEYLVYNLEGMVSSEPLRRRGRGMVIYISG,not soluble
2,MGKTLVVGAGGVSHAAVHKMAMNSDIFTEITLASRTKAKCDAIAASVKERTGVTIQTAALDAMDVAATVALIKETGAEILVNLALPYQDLKLMDACLEAGCHYLDTANYEPEDVAKFEYHWQWAYQDKFKEAGLTAILGSGFDPGVTSVFATWLKKHKLATIRQIDVLDA,not soluble
3,GPGSMSAVASDDSAGHVVDPVQHTHRYVQEHRLNELFGHLLQLVLYHRPDDPRAFLAEEVRKIREEKVSLSLFTERDLETMFEMIDATAQRWITVAQLRNTCRNLATASSAGNVSTGGGDLTAEQEAAIAGAGDAAGRVTMDKFKEVLSSLLLTKNKWS,soluble
4,MINVLIIDDDAMVAELNRRYVAQIPGFQCCGTASTLEKAKEIIFNSDTPIDLILLDIYMQKENGLDLLPVLHNARCKSDVIVISSAADAATIKDSLHYGVVDYLIKPFQASRFEEALTGWRQKKMALEKHQYYDQAELDQLIHGSSSNEQDPRRLPKGLTPQTLRTLCQWIDAHQDYEFSTDELANEVNISRVSCRKYLIWLVNCHILFTSIHYGVTGRPVYRYRIQAEHYSLLKQYCQ,soluble
5,MAKGDVITLNFETFVDSDTQVKVTRLTPTDVICHRNYFYQKCFTQDGKKLLFAGDFDGNRNYYLLNLETQQAVQLTEGKGDNTFGGFISTDERAFFYVKNELNLMKVDLETLEEQVIYTVDEEWKGYGTWVANSDCTKLVGIEILKRDWQPLTSWEKFAEFYHTNPTCRLIKVDIETGELEVIHQDTAWLGHPIYRPFDDSTVGFCHEGPHDLVDARMWLVNEDGSNVRKIKEHAEGESCTHEFWIPDGSAMAYVSYFKGQTDRVIYKANPETLENEEVMVMPPCSHLMSNFDGSLMVGDGCDAPVDVADADSYNIENDPFLYVLNTKAKSAQKLCKHSTSWDVLDGDRQITHPHPSFTPNDDGVLFTSDFEGVPAIYIADVPESYKHLEHHHHHH,soluble
6,MAHHHHHHMHATKSGVTTLSASAGNSDVPVMSAAYEDAARQPNAVFVNVYDIMKSNSWLWSVGLGVHHAGIQVYDKEYQYGRCEEGSGVRAVEPRHSPPHIFREQFFVGQTQLSALEVRKLVARLEQCDTWQGSKYHLVKHNCIHFAQAFCEALLPPHVRVAQMRTALPSTYQSAYMEEVEVDGQQYSLPVLIPPHVSRLSNYATSYLPESALQMLDSMDNPFSTP,soluble
7,MRQNDKIMCILENRKKRDRKNLCRAINDFQQSFQKPETRREFDLSDPLALKKDLPARQSDNDVRNTISGMQKFMGEDLNFHERKKFQEEQNREWSLQQQREWKNARAEQKCAEALYTETRLQFDETAKHLQKLESTTRKAVCASVKDFNKSQAIESVERKKQEKKQEQEDNLAEITNLLRGDLLSENPQQAASSFGPHRVVPDRWKGMTQEQLEQIRLVQKQQIQEKLRLQEEKRQRDLDWDRRRIQGARATLLFERQQWRRQRDLRRALDSSNLSLAKEQHLQKKYMNEVYTNQPTGDYFTQFNTGSR,not soluble
8,MELMKDDRYSPDWKNIAITKKQSVHWVCEWCGVQCLKPGEGKGLLKEERYRLRMAVHHCDYDPGNNSPSNLMAVCSPCHLYYHRRQQGNITPGQLKITINLEHHHHHH,soluble
9,MRNVFCIGELLIDFVCRNTNVSLVNGSNFEKKAGGAPANVAAAITKLGGHATFMGQVGNDPFGEFLEQTLQHAHVDTSMLIKDKQTTLAFVSIDQNGERDFTFMRGADGEYHFNSIDLSKIKTNDLIHFGSATALLSSPLKDTYFQLLQHARESGQFISFDPNYRNALITNTEQFIQDCLTFIKHAHFVKVSQEEAIMLSKESDLQQSALKLLNHGAKAVAITLGKDGTLLATKDKQTIVPSISIQQVDTTGAGDAFVGAMLYQIAKSEQMFLHNFEGLTTFISFANKVGALTCTNYGAISSLPSLTDVKAYE,not soluble
10,MEIKERIQLLLSEMNRGVYEKEAEIGLSLLAALAGESILLLGPPGVAKSMVARRLKRAFVDARAFEYLMSRFSTPDEIFGPVSISRLKESDKYERAVDGYLPTADVVFLDEIWKAGPAIQNTLLTVINEKLFRNGDTELKLPLKLLVAASNELPTQGEGLEALWDRFLIRIISTCVKQEEAFYQMLLDDDDEEEQEACRWQISDEEYAGWQKEIRQIKVSAEVLSCITEIRKNLEKVEIQGSEVHRNVYVSDRRWKNIVKLLKASAFIHGRKEVCLTDLLPVYHCLWNEPEECADIRQIVVRALFVPYVKEIAAINLSLKSDLKVSRVREALEKARQKGDRRDDDLMIIDHFYYQIENHGTGNTYIFIVDYKNLKEYSPKDVPATGVMYADPLNPKRTIIRTFSDATKMKEQGAERVTLYRDEKNLYINGVRFPMRRLKRGEQQQLWLGNMTLTDRDYETELETAHGRIEKLVKDLSENIFISEEDKKGVAQYVATLRKEIAWARVDVRKLRYGDES,not soluble
11,MSLSLREVSQLLCQLKVLDQKITKVFEEQVGLSLTRYELLMILKERQPCLQTEIQEHLKIDSGAVTRHLKILEEKQYVTRQRNPENNREVLVHLTEKAQQELQQCTAKQQTVTEIIPSTFTKDDCRQLKELLTKLDQSITTKEV,not soluble
12,MPLMPQPTLMPLLQSPSPQHQHQQQQQHRAIGYPQRTLLPQQKQPQQQQPLAYLTSNFNPQQSSVASFNSSPAFTTISDFDQDFDQDYSNCPSLTASPVSTYSLPAYSSTSQQGSSLSAFDSIPNTTTVPRAAQGAAEPLFNLWADPMQTETWLQPADQLTSKSAGRYGHHRESSLSSLGSAGPASPYSNNTSNPQIAVTDFNDFSGFEDLNYHLVPSKASATLHPSFPGYANSNAVPINGYSRAPAVSKQNNNKSFRQEQSVGSNKPRPAPVASSIMSDSSATPAGEAEVAGRQKNGESQENRDLPDRDQSLPFDDVAINNNAPPKFDRTLTDIMNDELYHPDLVITTSAPAPQQTLTTSNNNFNKVVETANQHLSAMQSPASSNSSPFRQGSPHSATLHDFSSLNMASPQVRLGSAQQMRENSKAVQDAAWQQSLARHNQDMTPKTISPKDALLDYHEPEGESNFPLFPQPDNHGFNSDAMSKALSHQSLDGLPNLGDMSTFNFNFSPSNLDSMPTFNGLQQLPQTLQQYSFVNQPRQPSTVPSLATSRMSSAETGITDSPRSNAVQRPVDTRAEGGTYTCTYHGCPLRFDTPQLLQKHKREGHRQAHGLNSRQPNGMTSTRVDTQAGPHRCERINPSTGKPCNQIFSRPYDLTRHEDTIHNARKKKVRCEICTDEKTFSRADALTRHFRVCHPDVPFNGGKQRKARAGRSG,not soluble
13,MAAVVALSLRRRLPATTLGGACLQASRGAQTAAATAPRIKKFAIYRWDPDKAGDKPHMQTYKVDLNKCGPMVLDALIKIKNEVDSTLTFRRSCREGICGSCAMNINGGNTLACTRRIDTNLNKVSKIYPLPHMYVIKDLVPDLSNFYAQYKSIEPYLKKKDESQEGKQQYLQSIEEREKLDGLYECILCACCSTSCPSYWWNGDKYLGPAVLMQAYRWMIDSRDDFTEERLAKLQDPFSLYRCHTIMNCTRTCPKGLNPGKAIAEIKKMMATYKEKKASV,not soluble
14,MGSDKIHHHHHHMLNMDLSQRVVINTADLEWQNSPAAGVLRKRLAREEAERGHATSIVKYQAGAKFNSHPHPLGEEILVLDGVFSDETGDYPAGTYLRNPEGFVHAPFSVQGCTLLVKLHQFQTTDSQQVAINTNETQWLPGHGQLQVMPLHQHGTESTALVKWPAGTHFQPHRHFGGEEIYVISGVFIDELGRYPAGTWIRSPHLSQHNPYVEQDTVILVKVGHL,not soluble
